In the RNAGym collection of RNA variant scans (doi:10.7554/elife.80360):

B1: Twister Ribozyme (parent)
chain: AACACUGCCAAUGCCGGUCCCAAGCCCGGAUAAAAGUGGAGGGGGCGG

Variants of: B1
Experiment: self-cleavage, relative activity (ratio to wild type); higher = more cleavage; co-transcriptional
With A22C A32G the self-cleavage was 0.879.
Work on A22C A32C yielded a self-cleavage of 1.08.
For A22C A32U, the self-cleavage was 0.858.
For C19G U37C, the self-cleavage was 0.138.
C19G U37A gave a self-cleavage of 0.0632.
For C21G G38U, the self-cleavage was 0.0824.
Variant C21G G38C has a self-cleavage of 0.0966.
C20A G48C gave a self-cleavage of 0.169.
With C20U U37A the self-cleavage was 0.474.
Work on C20U U37C yielded a self-cleavage of 0.192.
With C21G C26G the self-cleavage was 0.0411.
For C20A G24A, the self-cleavage was 0.114.
In the case of C20A G24U, the self-cleavage is reported as 0.0913.
Variant C20A G24C has a self-cleavage of 0.0912.
C21A G48U gave a self-cleavage of 0.154.
Work on C21A G48A yielded a self-cleavage of 0.107.
For A22C A35G, the self-cleavage was 1.02.
For A22C A35C, the self-cleavage was 1.01.
For C20U A34C, the self-cleavage was 0.0697.
In the case of C20A A32U, the self-cleavage is reported as 0.186.
C19U A35U gave a self-cleavage of 0.972.
For C19U A35G, the self-cleavage was 0.683.
Variant C21A A32G has a self-cleavage of 0.0702.
In the case of C19U G36C, the self-cleavage is reported as 0.129.
C20A C25A showed a self-cleavage of 0.0826.
In the case of C20U G24A, the self-cleavage is reported as 0.0805.
Variant C19U G24U has a self-cleavage of 0.0889.
With C19U G24A the self-cleavage was 0.0904.
Variant C20G G36A has a self-cleavage of 0.0839.
For C20G G48A, the self-cleavage was 0.124.
Variant C20G G48U has a self-cleavage of 0.12.
In the case of C19U C27G, the self-cleavage is reported as 0.0975.
For C19U C27A, the self-cleavage was 0.176.
C21A A30G showed a self-cleavage of 0.0944.
Work on A22C G29A yielded a self-cleavage of 1.01.
A22C G29U showed a self-cleavage of 0.89.
Work on C21U G36C yielded a self-cleavage of 0.0754.
In the case of C21U G36A, the self-cleavage is reported as 0.0555.
In the case of C19U U37C, the self-cleavage is reported as 0.242.
With C21U G38U the self-cleavage was 0.0705.
With C21U G28A the self-cleavage was 0.102.
C21U G28C showed a self-cleavage of 0.0826.
C21A gave a self-cleavage of 0.13.
C21U showed a self-cleavage of 0.129.
C21G gave a self-cleavage of 0.0865.
For C19U A22U, the self-cleavage was 0.601.
Variant C19U A22C has a self-cleavage of 1.15.
Work on C21A G36U yielded a self-cleavage of 0.0686.
Variant C21A G36C has a self-cleavage of 0.109.
In the case of C20U G28C, the self-cleavage is reported as 0.774.
With C20U G28A the self-cleavage was 0.809.
C20U A35C showed a self-cleavage of 0.881.
For C20U A35U, the self-cleavage was 1.08.
In the case of C20U G29U, the self-cleavage is reported as 0.921.
Work on C20U G29C yielded a self-cleavage of 0.305.
For C21A G47C, the self-cleavage was 0.0714.
Work on C21A G47U yielded a self-cleavage of 0.117.
With C20A G41C the self-cleavage was 0.0888.
For C20A G41U, the self-cleavage was 0.0817.
C19U G43A showed a self-cleavage of 1.04.
For C19U G43U, the self-cleavage was 1.02.
For C20A A30C, the self-cleavage was 0.109.
C20A A30U showed a self-cleavage of 0.175.
C20G G45C gave a self-cleavage of 0.136.
C19U G39A gave a self-cleavage of 0.28.
In the case of C19U G39C, the self-cleavage is reported as 0.0962.
In the case of C19U G39U, the self-cleavage is reported as 0.125.
Work on C20G G24A yielded a self-cleavage of 0.109.
With C20G G24U the self-cleavage was 0.0899.
C20G G24C gave a self-cleavage of 0.123.
For C21A A34C, the self-cleavage was 0.0648.
With C21A A34G the self-cleavage was 0.052.
In the case of C20A C46U, the self-cleavage is reported as 0.154.
In the case of C20A C46A, the self-cleavage is reported as 0.0788.
C21U C27A showed a self-cleavage of 0.0634.
C21U C27U showed a self-cleavage of 0.104.
In the case of A22C A23U, the self-cleavage is reported as 0.243.
Work on C19U G41U yielded a self-cleavage of 0.125.
In the case of C21U G24A, the self-cleavage is reported as 0.102.
For C20G G29U, the self-cleavage was 0.146.
Work on C20G G29A yielded a self-cleavage of 0.189.
Work on C20A G45A yielded a self-cleavage of 0.144.
Variant C20A G45U has a self-cleavage of 0.17.
C20A G38U showed a self-cleavage of 0.0791.
Variant C20A G38C has a self-cleavage of 0.0639.
C21U G43C gave a self-cleavage of 0.0867.
Variant C21U G43A has a self-cleavage of 0.08.
C20G C25U gave a self-cleavage of 0.0692.
C20G C25A showed a self-cleavage of 0.0525.
Variant C21A G39A has a self-cleavage of 0.0763.
Work on C21A G39U yielded a self-cleavage of 0.0973.
In the case of C21U G42A, the self-cleavage is reported as 0.0823.
In the case of C21U G42U, the self-cleavage is reported as 0.0927.
Variant C20U A22G has a self-cleavage of 0.119.
In the case of C20U A22U, the self-cleavage is reported as 0.543.
C20G A32G gave a self-cleavage of 0.0903.
With C20G A32C the self-cleavage was 0.078.
For C20G A32U, the self-cleavage was 0.0524.
Work on C20U G38C yielded a self-cleavage of 0.841.
Work on C20U G38A yielded a self-cleavage of 0.802.
C21A U37C showed a self-cleavage of 0.115.
For C21A U37G, the self-cleavage was 0.0471.
For C20G A30C, the self-cleavage was 0.0614.
In the case of C20G A30U, the self-cleavage is reported as 0.165.
For A22C A34U, the self-cleavage was 0.872.
Variant A22C A34G has a self-cleavage of 0.912.
Work on A22C A34C yielded a self-cleavage of 0.169.
In the case of C19U A33G, the self-cleavage is reported as 0.889.
In the case of C19U A32U, the self-cleavage is reported as 1.02.
Variant C20U G48U has a self-cleavage of 0.963.
In the case of C20U G48A, the self-cleavage is reported as 0.907.
Work on C19U C26A yielded a self-cleavage of 0.116.
Work on C20A A33C yielded a self-cleavage of 0.0903.
In the case of C20A A33G, the self-cleavage is reported as 0.116.
Work on C20A A23C yielded a self-cleavage of 0.1.
In the case of C20G G42C, the self-cleavage is reported as 0.791.
With C20G G42A the self-cleavage was 0.083.
With C20G G42U the self-cleavage was 0.386.
C20G C26U gave a self-cleavage of 0.0527.
With C21U A33C the self-cleavage was 0.119.
For C21U A33U, the self-cleavage was 0.0831.
Work on C20G A33C yielded a self-cleavage of 0.0661.
In the case of C20G A33G, the self-cleavage is reported as 0.0756.
For C20G A33U, the self-cleavage was 0.13.
With C20A U31C the self-cleavage was 0.117.
C20A U31G showed a self-cleavage of 0.177.
Work on C20G G41C yielded a self-cleavage of 0.0754.
C20G G41A gave a self-cleavage of 0.0636.
Work on C21A A40C yielded a self-cleavage of 0.0907.
In the case of C21A A40U, the self-cleavage is reported as 0.0782.
Work on A22C G43A yielded a self-cleavage of 0.183.
With A22C G43C the self-cleavage was 0.145.
In the case of A22C A30C, the self-cleavage is reported as 1.07.
For A22C A30G, the self-cleavage was 1.16.
For C21U C25U, the self-cleavage was 0.0856.
Variant C20G G44C has a self-cleavage of 0.0871.
In the case of C21G G29U, the self-cleavage is reported as 0.0841.
For C21G G29C, the self-cleavage was 0.123.
C21A G28U gave a self-cleavage of 0.129.
For C21A G28C, the self-cleavage was 0.149.
Work on C21U C46U yielded a self-cleavage of 0.0929.
C21A G41A showed a self-cleavage of 0.27.
C19U G42U gave a self-cleavage of 0.142.
C19G U31G showed a self-cleavage of 0.467.
With C19U A23C the self-cleavage was 0.117.
For C19U C25U, the self-cleavage was 0.623.
C19U C25G gave a self-cleavage of 0.176.
For C20A G44A, the self-cleavage was 0.198.
Work on C20A G44U yielded a self-cleavage of 0.107.
C21G C25A gave a self-cleavage of 0.0791.
Variant C20A A35C has a self-cleavage of 0.191.
C20A A35U gave a self-cleavage of 0.151.
Work on C20A G29C yielded a self-cleavage of 0.0857.
With C20A G29U the self-cleavage was 0.103.
Variant C21U A35U has a self-cleavage of 0.115.
Variant C19U G29A has a self-cleavage of 0.806.
Work on C21G G43C yielded a self-cleavage of 0.0506.
With A22C G36A the self-cleavage was 0.547.
A22C G36C gave a self-cleavage of 0.345.
C21G G47A gave a self-cleavage of 0.0718.
Work on C21G G47U yielded a self-cleavage of 0.142.
C21U G47A gave a self-cleavage of 0.123.
Work on C21U G47C yielded a self-cleavage of 0.0939.
A22C G44C gave a self-cleavage of 0.905.
With C21G G45U the self-cleavage was 0.0493.
C21G G45C showed a self-cleavage of 0.0674.
In the case of C21G G45A, the self-cleavage is reported as 0.114.
